Here are results for 1 protein from PMC8195987, “Structural basis for plazomicin antibiotic action and resistance” (Communications Biology, 2021).

This series deals with the molecule itself. The series can be described thus: crystal structure; AAC(2′)-Ia at 10 mg/mL with 10 mM acetyl-CoA and 10 mM plazomicin, sitting-drop vapor diffusion at 4 °C, reservoir 0.2 M LiCl and 40% (v/v) MPD; product-bound state (acetylated plazomicin and CoA).

B1: AAC(2′)-Ia from Providencia stuartii (enzyme)
chain: MGIEYRSLHTSQLTLSEKEALYDLLIEGFEGDFSHDDFAHTLGGMHVMAFDQQKLVGHVAIIQRHMALDNTPISVGYVEAMVVEQSYRRQGIGRQLMLQTNKIIASCYQLGLLSASDDGQKLYHSVGWQIWKGKLFELKQGSYIRSIEEEGGVMGWKADGEVDFTASLYCDFRGGDQW
notes: AAC(2′)-Ia, aminoglycoside 2′-N-acetyltransferase of Providencia stuartii; synthesized aac(2′)-Ia gene cloned in pET-15b between NdeI and BamHI, N-terminal HIS-tag followed by a thrombin cleavage site; the tag was removed with thrombin; Homodimer in the crystal, each unit with acetylated plazomicin and CoA in the active site; also called aminoglycoside 2′-N-acetyltransferase; AAC(2′)-Ia …
For the protein B1, the binding result is given as “binds”.
